Experimental data from the nanobody polyreactivity screen of Harvey et al. (2022).

Test: yeast display, Sf9 membrane polyspecificity reagent, FACS + sequencing; frameworks hold sequencing errors
Procedure, shortened: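 Sorting gates, low and high (top ~1%), were placed on anti-HA fluorescence to track expression and on streptavidin fluorescence to track reagent binding. A clone's polyreactivity label is taken from the gate it came out of. The reagent was 10% biotinylated, detergent-solubilized Sf9 membrane, applied for 1 hour at 4 °C to galactose-induced yeast display cells.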

| Sequence | polyreactivity (PSR sort gate) |
| --- | --- |
| QVQLVESGGGLVQAGGSLRLRCAASGITLVDYAMGWNRQAPGKERELVAAITTGGSTNYADSVKGRFTISRDNAKNTVYLQINSLKPEDTAVYYCNKRAVILYDYWGQGTQVTVSS | low polyreactivity |
| QVQLVESGGGLVQAGGSLRLRCAASGLIFPYNAMGWYRQAPGKERELVAAIDTRGSSTYYADSVKGRFTISRDNAKNTVYLQMNSLKPEDSAVYYCNARTGRSPTGFRYWGQGTEVTVSS | high polyreactivity |
| QVQLVESGGGLVQAGGSLRLRCAASGRIFGLYAMGWYRQAPGKERQLVAAISRGGGSTYYADSVKGRFTISRDNAKNTVYLQMNSLNPEDTEVYYCATGLGYFSRLDYCGQGTQVTVSS | low polyreactivity |
| QVQLVESGGGLVQAGGSLRLRCAASGRIFGRNAMGWYRQAPGKERELVATISSGDTTDYADSVKGRFTISRDNAKNTVYLQMNSLKPEDTAVYYITIYNYWGQGTQVTVSS | low polyreactivity |
| QVQLVESGGGLVQAGGSLRLRCAASGRIFRIYPMGWYRQAPGKERELVARITYSGGSTYYADSVKGRFTISRDNAKNTVYLQMNSLKPEDTAVYYCAADWLGYQYGYWGQGTQVTVSS | low polyreactivity |
| QVQLVESGGGLVQAGGSLRLRCAASGRTFLPYAMGWSRQAPGKVRVLVAAIDSSGTSTYYADSVKGRFTISRDNAKNTVYLQMNSLKPEDTAVYYCAKAWPDHWYSRYDYWGQGTQVTVSS | low polyreactivity |
| QVQLVESGGGLVQAGGSLRLRCAASGRTFSSNAMGWYRQAPGKERELVASISRRGGSTYYADSVKGRFTISRDNAKNSVYVQMNSLKPEDTAVYDCAARQSGQILGYYSRYDYWGQGTQVTVSS | high polyreactivity |
| QVQLVESGGGLVQAGGSLRLRCAASGRTFTAYTMGLYRQAPGKEREFVASISSGVTYADSVKGRFTISRDNAKITVYLQMNSLKPEDTAVYYCAARLWYVQGYVPYVHHRFDYWGQGTQVTVSS | low polyreactivity |
| QVQLVESGGGLVQAGGSLRLRCAASGSIFARNAMGWYRQAPGKERELVASITWSGASTFYADSVKGRFTISRDNAKYTVYLQMNSLKPDVTAVYYCAATDQKLSLDYSSYEYWGQGSQVTVSS | low polyreactivity |
| QVQLVESGGGLVQAGGSLRLRCAASGSIFIRYAMGWYRQAPGKERELVAVISGRGVRTNYADSVKGRFTIARDTAKNPVYLQMNSLKPEDTAVYYCAVRYYGKQLGPGVRYTYNYLGQGTQVTVSS | high polyreactivity |
| QVQLVESGGGLVQAGGSLRLRCAASGSIFWPYAMGWYRQAPGKERELVAGISSGGSTYYADSVKGRFTISRDNAKNTDYLQMNSLKPEDTAVYYCAARWQWLNGYYYWGQGSQVTVSS | high polyreactivity |
| QVQLVESGGGLVQAGGSLRLRCAASGSIFYRNAMGWYRQAPGTERELVAAISSDGSTNYADSVKGRFSISRDNAKNTVYLQMNSLKPEDTAVYYCNADYVQQVAKYQYGYEYGYWGQGTQVTVSS | low polyreactivity |
| QVQLVESGGGLVQAGGSLRLRCAASGSTFEMYAMGWYRQEPGKERELVAAITWDTDSTYYADSVKGRFTISRDNAKNTVYLQMNSLKPEDTAVYYCNSQSGRASHYRGYGFDYWGQGTQVTVSS | high polyreactivity |
| QVQLVESGGGLVQAGGSLRLRCAASGSTFGRNTMGWYRQAPGKERELVAAISKSGGYTRYADSVKGRFTISRDNAKNTVYLQMNSLKPEDTAVYYCAARVYSLGYGGDYWGQGTQVTVSS | high polyreactivity |
| QVQLVESGGGLVQAGGSLRLRCAASGSTFSEYAMGWYRQAPGKERELVAAISYNGGSTYYADSVKGRFTISRDNAKNTVYLQMNSLKPEDTAVYYCNAKLFYDRYDYWGQGTQVTVSS | low polyreactivity |
| QVQLVESGGGLVQAGGSLRLRCAASGSTFTYNTMGWYRQAPGKERELVAAINTTGNTYADSVKGRFTISRDNAKNTVYLQMNSLKPEDTAVYYCNTDYVPRRHDMDYWGQGTQVTLSS | low polyreactivity |
| QVQLVESGGGLVQAGGSLRLRCAASGSTFVRYAMGWYREAAGKEMELVAAISSRGGSTYYADSVKGRFTISRDNAKNTVYLQMNSLKPEDTAVYYCNAAAFINFMLYDYWGQGTQVTVSS | high polyreactivity |
| QVQLVESGGGLVQAGGSLRLRCAASGSTFYIYAMGWYRPAPGKERELVARISGSGGSTYYADSVKGRFTISRDNAKNTVYLQMNSLKPEDTSVYSCAAQRRVVGRHGLSLIRYDYWGQGTQVTVSS | low polyreactivity |
| QVQLVESGGGLVQAGGSLRLRCAASGSTSWSNPMGWYRQAPGKERELVAAITTGASTYYADSVKGRFTISRDNAKNTVYLQMNSLKPEDTAVYYCAADPWVLWSYYYWGQGTQVTVSS | low polyreactivity |
| QVQLVESGGGLVQAGGSLRLRCAASGTFYLYAMGWYRQAPWKQRELVAAISGSGSTNYADSVKGRFTISRDNAKNTVYLQMNSLKPEDTAVYYCAAYQRYDSLTGARYEYDYWGQGTQVTVSS | low polyreactivity |
| QVQLVESGGGLVQAGGSLRLRCAASGYTFKHYTMGWYREAPGKERELVAAISRRGGRTYYADSVKGRFTISRDNAKNTVYLQMNSLKPEDTAVYYCNRVPRARKGDYWGQGTQVTVSS | high polyreactivity |
| QVQLVESGGGLVQAGGSLRLRCAASGYTLTPYTMGWYRQAPGKERELVAAINRSGGSTYYADSVKGRFTISRDNAKNTVYLQMNSLKPEDTAVYYCAAYGYYNFGYYYWGQGTQVTVSS | high polyreactivity |
